Reference: PMC3486911 (PLoS Pathogens, 2012)
Values joined by “and” are separate entries in the source; they are usually repeats but may differ in a detail not shown here. Identical values can stand only once. Like-named read-outs stand apart in the source and are kept apart here.

Key:
Test in all cases: SPR
[1] = molecular target: V1 fHbp (V1.p1), wild type (Neisseria meningitidis) (UniProt Q9JXV4)
[2] = molecular target: V1 fHbp Arg195-Ala (Neisseria meningitidis)
[3] = molecular target: V1 fHbp Gln193-Ala (Neisseria meningitidis)
[4] = molecular target: V1 fHbp His203-Ala (Neisseria meningitidis)
[5] = molecular target: V1 fHbp Ile196-Ala (Neisseria meningitidis)
[6] = molecular target: V1 fHbp Lys191-Ala (Neisseria meningitidis)
[7] = molecular target: V1 fHbp Phe194-Ala (Neisseria meningitidis)
[8] = molecular target: V1 fHbp (V1.p1), wild type (Neisseria meningitidis) (UniProt Q9JXV4); remark: listed apart in the source
[9] = molecular target: V3 fHbp (V3.p28), wild type (Neisseria meningitidis) (UniProt E6MV22)
[10] = molecular target: V3 fHbp Ala99Glu (Neisseria meningitidis)
[11] = molecular target: V3 fHbp Asn123 mutant (to Ala) (Neisseria meningitidis)
[12] = molecular target: V3 fHbp Asn48 mutant (to Ala) (Neisseria meningitidis)
[13] = molecular target: V3 fHbp Asp126 mutant (to Ala) (Neisseria meningitidis)
[14] = molecular target: V3 fHbp Asp43 mutant (to Ala) (Neisseria meningitidis)
[15] = molecular target: V3 fHbp Asp92 mutant (to Ala) (Neisseria meningitidis)
[16] = molecular target: V3 fHbp Gln134 mutant (to Ala) (Neisseria meningitidis) (UniProt E6MV22)
[17] = molecular target: V3 fHbp Gln87 mutant (to Ala) (Neisseria meningitidis) (UniProt E6MV22)
[18] = molecular target: V3 fHbp Gly49 mutant (to Ala) (Neisseria meningitidis) (UniProt E6MV22)
[19] = molecular target: V3 fHbp His190 mutant (to Ala) (Neisseria meningitidis)
[20] = molecular target: V3 fHbp Ile122 mutant (to Ala) (Neisseria meningitidis)
[21] = molecular target: V3 fHbp Ile96 mutant (to Ala) (Neisseria meningitidis)
[22] = molecular target: V3 fHbp Leu117 mutant (to Ala) (Neisseria meningitidis)
[23] = molecular target: V3 fHbp Leu98 mutant (to Ala) (Neisseria meningitidis)
[24] = molecular target: V3 fHbp Lys127 mutant (to Ala) (Neisseria meningitidis)
[25] = molecular target: V3 fHbp Lys32 mutant (to Ala) (Neisseria meningitidis)
[26] = molecular target: V3 fHbp Pro125 mutant (to Ala) (Neisseria meningitidis)
[27] = molecular target: V3 fHbp Pro46 mutant (to Ala) (Neisseria meningitidis)
[28] = molecular target: V3 fHbp Ser44 mutant (to Ala) (Neisseria meningitidis)
[29] = molecular target: V3 fHbp Thr128 mutant (to Ala) (Neisseria meningitidis)
[30] = molecular target: V3 fHbp Val114 mutant (to Ala) (Neisseria meningitidis)
[31] = molecular target: V3 fHbp Val91 mutant (to Ala) (Neisseria meningitidis)
[32] = molecular target: V1 fHbp (V1.p1), wild type (Neisseria meningitidis) (UniProt Q9JXV4); remark: listed apart in the source
[33] = molecular target: V3 fHbp (V3.p28), wild type (Neisseria meningitidis) (UniProt E6MV22); remark: listed apart in the source
[34] = molecular target: V3 fHbp Ala99Glu (Neisseria meningitidis); remark: listed apart in the source
[35] = molecular target: V3 fHbp Asn123 mutant (to Ala) (Neisseria meningitidis); remark: listed apart in the source
[36] = molecular target: V3 fHbp Asn48 mutant (to Ala) (Neisseria meningitidis); remark: listed apart in the source
[37] = molecular target: V3 fHbp Asp126 mutant (to Ala) (Neisseria meningitidis); remark: listed apart in the source
[38] = molecular target: V3 fHbp Asp43 mutant (to Ala) (Neisseria meningitidis); remark: listed apart in the source
[39] = molecular target: V3 fHbp Asp92 mutant (to Ala) (Neisseria meningitidis); remark: listed apart in the source
[40] = molecular target: V3 fHbp Gln134 mutant (to Ala) (Neisseria meningitidis) (UniProt E6MV22); remark: listed apart in the source
[41] = molecular target: V3 fHbp Gln87 mutant (to Ala) (Neisseria meningitidis) (UniProt E6MV22); remark: listed apart in the source
[42] = molecular target: V3 fHbp His190 mutant (to Ala) (Neisseria meningitidis); remark: listed apart in the source
[43] = molecular target: V3 fHbp Ile122 mutant (to Ala) (Neisseria meningitidis); remark: listed apart in the source
[44] = molecular target: V3 fHbp Ile96 mutant (to Ala) (Neisseria meningitidis); remark: listed apart in the source
[45] = molecular target: V3 fHbp Leu98 mutant (to Ala) (Neisseria meningitidis); remark: listed apart in the source
[46] = molecular target: V3 fHbp Lys127 mutant (to Ala) (Neisseria meningitidis); remark: listed apart in the source
[47] = molecular target: V3 fHbp Pro125 mutant (to Ala) (Neisseria meningitidis); remark: listed apart in the source
[48] = molecular target: V3 fHbp Pro46 mutant (to Ala) (Neisseria meningitidis); remark: listed apart in the source
[49] = molecular target: V3 fHbp Ser44 mutant (to Ala) (Neisseria meningitidis); remark: listed apart in the source
[50] = molecular target: V3 fHbp Thr128 mutant (to Ala) (Neisseria meningitidis); remark: listed apart in the source
[51] = molecular target: V3 fHbp Val114 mutant (to Ala) (Neisseria meningitidis); remark: listed apart in the source
[52] = molecular target: V3 fHbp Val91 mutant (to Ala) (Neisseria meningitidis); remark: listed apart in the source

“human factor H CCP 6 and 7 (fH67) (domain or fragment)” was tested, and the Kd [1] was 2.8 nM and 2.35 nM and 2.45 nM, the Kd [2] was 218 nM and the Kd [3] was 4.75 nM. For the same substance, the Kd [4] was 1.7 nM, the Kd [5] was 1.5 nM and the Kd [6] was 4.15 nM. For the same substance, the Kd [7] was 6.15 nM, the Kd [8] was 2 nM and 2.1 nM and the Kd [9] was 2.4 nM and 2.3 nM. The Kd [10] was 79 nM and 70 nM, the Kd [11] was 7.4 nM and 8.6 nM and the Kd [12] was 3.6 nM and 3.7 nM. The Kd [13] was 6.3 nM and 6.5 nM, the Kd [14] was 3 nM and 3.4 nM and the Kd [15] was 4.7 nM and 4.8 nM. For the same substance, the Kd [16] was 2.6 nM and 2.7 nM, the Kd [17] was 0.71 nM and 0.72 nM and the Kd [18] was 3 nM. The Kd [19] was 3.4 nM and 3.3 nM, the Kd [20] was 9.4 nM and 11 nM and the Kd [21] was 14 nM and 15 nM. For the same substance, the Kd [22] was 5.2 nM, the Kd [23] was 86 nM and 88 nM and the Kd [24] was 2.9 nM and 3 nM. For the same substance, the Kd [25] was 3 nM, the Kd [26] was 3.2 nM and 3.4 nM and the Kd [27] was 0.026 nM and 0.03 nM. The Kd [28] was 10 nM and 9.8 nM, the Kd [29] was 4 nM and 4.4 nM and the Kd [30] was 3.2 nM and 3.3 nM. For the same substance, the Kd [31] was 5.6 nM and 6.5 nM, the Kd [32] was 2.05 nM and the Kd [33] was 2.35 nM. The Kd [34] was 74.5 nM, the Kd [35] was 8 nM and the Kd [36] was 3.65 nM. For the same substance, the Kd [37] was 6.4 nM, the Kd [38] was 3.2 nM and the Kd [39] was 4.75 nM. For the same substance, the Kd [40] was 2.65 nM, the Kd [41] was 0.715 nM and the Kd [42] was 3.35 nM. It also gave a Kd [43] of 10.2 nM, a Kd [44] of 14.5 nM and a Kd [45] of 87 nM. It also gave a Kd [46] of 2.95 nM, a Kd [47] of 3.3 nM and a Kd [48] of 0.028 nM. For the same substance, the Kd [49] was 9.9 nM, the Kd [50] was 4.2 nM and the Kd [51] was 3.25 nM. For the same substance, the Kd [52] was 6.05 nM.
